The values below come from the supplement of paper PMC9112550, “Optimization of the antimicrobial peptide Bac7 by deep mutational scanning” (BMC Biology, 2022).

The test system of this data set is Escherichia coli TOP10. In words: shrunken log2 fold change of peptide-encoding DNA abundance (4.5 h post-induction vs induction); higher = less antimicrobial activity (less host growth inhibition). The settings on record: time post-induction: 4.5 h; library: site-saturation at positions 5, 18, 19, 20.
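Also: peptides expressed intracellularly from a pBAD plasmid library in pooled LB shake-flask culture, induced with 0.3% L-arabinose, DNA abundance read by NGS, three biological replicates, DESeq2 with apeglm shrinkage.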

Regarding RRIRIRPPRLPRPRPRPTLRPRP, the “shrunken log2 fold change” value was found to be 0.0906.
The result for RRIRTRPPRLPRPRPRPQAAPRP reads -0.0432; that for RRIRARPPRLPRPRPRPHSFPRP, 0.00388; that for RRIRFRPPRLPRPRPRPSEKPRP, 0.0358.
The figure for RRIRMRPPRLPRPRPRPETQPRP is 0.359; for RRIRCRPPRLPRPRPRPVETPRP it is 0.0672; for RRIRNRPPRLPRPRPRPTYNPRP it is -0.692.
The figure for RRIRERPPRLPRPRPRPDKVPRP is -0.121; for RRIRLRPPRLPRPRPRPLEVPRP it is -0.0281.
As for RRIRSRPPRLPRPRPRPDCRPRP, the “shrunken log2 fold change” value came to 0.0345.
Take RRIRQRPPRLPRPRPRPTQYPRP: the “shrunken log2 fold change” value is -0.0342.
The figure for RRIRYRPPRLPRPRPRPWSFPRP is -0.522; for RRIRERPPRLPRPRPRPVYTPRP it is -0.146.
The result for RRIRGRPPRLPRPRPRPFFLPRP reads 0.301; that for RRIRARPPRLPRPRPRPMPCPRP, 0.535.
As to RRIRQRPPRLPRPRPRPGCSPRP, the “shrunken log2 fold change” value was 0.0894.
The result for RRIRSRPPRLPRPRPRPYRSPRP reads -0.47.
In the case of RRIRGRPPRLPRPRPRPMSHPRP, the “shrunken log2 fold change” value turned out to be 0.225.
As to RRIRCRPPRLPRPRPRPVQHPRP, the “shrunken log2 fold change” value is -0.0893.
On to RRIRTRPPRLPRPRPRPFRTPRP, for which the “shrunken log2 fold change” value is -0.146.
Take RRIRFRPPRLPRPRPRPCSWPRP: the “shrunken log2 fold change” value was -0.349.
In the case of RRIRDRPPRLPRPRPRPVVTPRP, the “shrunken log2 fold change” value came to 0.689.
Consider RRIRLRPPRLPRPRPRPLPIPRP, for which the “shrunken log2 fold change” value was -0.129.
The result for RRIRGRPPRLPRPRPRPKPRPRP reads 1.16.
The result for RRIRPRPPRLPRPRPRPIQMPRP reads -0.166; that for RRIRYRPPRLPRPRPRPNASPRP, -0.088.
The result for RRIRVRPPRLPRPRPRPDIWPRP reads 0.0543; that for RRIRRRPPRLPRPRPRPWDCPRP, -0.033; that for RRIRIRPPRLPRPRPRPFCSPRP, -0.426.
On to RRIRWRPPRLPRPRPRPSHGPRP, for which the “shrunken log2 fold change” value was -0.583.
For RRIRHRPPRLPRPRPRPYFSPRP, the “shrunken log2 fold change” value is -0.129.
On to RRIRYRPPRLPRPRPRPKSLPRP, for which the “shrunken log2 fold change” value was -0.204.
On to RRIRYRPPRLPRPRPRPNMGPRP, for which the “shrunken log2 fold change” value is -0.00101.
The result for RRIRMRPPRLPRPRPRPEMNPRP reads 3.59.
The figure for RRIRFRPPRLPRPRPRPAFRPRP is 0.132; for RRIRNRPPRLPRPRPRPDIYPRP it is -0.265.
The figure for RRIRVRPPRLPRPRPRPMGAPRP is 0.813; for RRIRIRPPRLPRPRPRPHLMPRP it is -1.31.
With RRIRRRPPRLPRPRPRPPAFPRP, the “shrunken log2 fold change” value was found to be 1.08.
The figure for RRIRSRPPRLPRPRPRPYDKPRP is 0.0507; for RRIRERPPRLPRPRPRPRKAPRP it is 0.444.
RRIRQRPPRLPRPRPRPSYKPRP: the “shrunken log2 fold change” value is -0.54.
On to RRIRARPPRLPRPRPRPTERPRP, for which the “shrunken log2 fold change” value came out at 0.502.
Regarding RRIRNRPPRLPRPRPRPNWYPRP, the “shrunken log2 fold change” value was -0.647.
The result for RRIRDRPPRLPRPRPRPKKEPRP reads 0.0609.
As to RRIRHRPPRLPRPRPRPYYLPRP, the “shrunken log2 fold change” value was -0.72.
On to RRIRARPPRLPRPRPRPPATPRP, for which the “shrunken log2 fold change” value was found to be 1.63.
The result for RRIRSRPPRLPRPRPRPLKKPRP reads 0.0577.
In the case of RRIRDRPPRLPRPRPRPVQCPRP, the “shrunken log2 fold change” value is -0.242.
Consider RRIRERPPRLPRPRPRPGVCPRP, for which the “shrunken log2 fold change” value was found to be 0.155.
On to RRIRFRPPRLPRPRPRPVEMPRP, for which the “shrunken log2 fold change” value is -0.327.
Take RRIRVRPPRLPRPRPRPWYYPRP: the “shrunken log2 fold change” value came out at 0.0171.
The result for RRIRMRPPRLPRPRPRPYYTPRP reads 0.0968; that for RRIRARPPRLPRPRPRPYHTPRP, -0.407.
The figure for RRIRWRPPRLPRPRPRPNITPRP is -0.161.
With RRIRTRPPRLPRPRPRPFWLPRP, the “shrunken log2 fold change” value was -0.0299.
The result for RRIRHRPPRLPRPRPRPTQVPRP reads 0.172; that for RRIRSRPPRLPRPRPRPYSSPRP, -0.271; that for RRIRWRPPRLPRPRPRPMVFPRP, 0.274.
In the case of RRIRPRPPRLPRPRPRPHTKPRP, the “shrunken log2 fold change” value was 0.00533.
The result for RRIRFRPPRLPRPRPRPVLYPRP reads -0.457.
In the case of RRIRQRPPRLPRPRPRPFCIPRP, the “shrunken log2 fold change” value was -0.641.
As to RRIRNRPPRLPRPRPRPKTCPRP, the “shrunken log2 fold change” value is 0.0411.
The figure for RRIRTRPPRLPRPRPRPPNIPRP is -0.355.
The figure for RRIRCRPPRLPRPRPRPAIEPRP is -0.384.
As to RRIRRRPPRLPRPRPRPFEHPRP, the “shrunken log2 fold change” value is -0.0715.
The result for RRIRYRPPRLPRPRPRPEYVPRP reads -0.0327.
The result for RRIRERPPRLPRPRPRPNVEPRP reads 0.0609.
With RRIRSRPPRLPRPRPRPNVKPRP, the “shrunken log2 fold change” value is -0.332.
The figure for RRIRIRPPRLPRPRPRPGYIPRP is -0.752; for RRIRWRPPRLPRPRPRPLLMPRP it is 0.284; for RRIRWRPPRLPRPRPRPRCFPRP it is 0.398.
The figure for RRIRKRPPRLPRPRPRPINPPRP is 0.0583; for RRIRRRPPRLPRPRPRPMDDPRP it is 0.211; for RRIRGRPPRLPRPRPRPWYRPRP it is -0.19.
As for RRIRKRPPRLPRPRPRPMCVPRP, the “shrunken log2 fold change” value is 0.208.
For the sequence RRIRRRPPRLPRPRPRPYHTPRP, the “shrunken log2 fold change” value was -1.28.
Consider RRIRWRPPRLPRPRPRPTVKPRP, for which the “shrunken log2 fold change” value was -0.0974.
RRIRSRPPRLPRPRPRPYYLPRP: the “shrunken log2 fold change” value was -0.7.
For the sequence RRIRNRPPRLPRPRPRPMFKPRP, the “shrunken log2 fold change” value was -0.386.
Take RRIRTRPPRLPRPRPRPRPCPRP: the “shrunken log2 fold change” value was -0.0153.
The figure for RRIRFRPPRLPRPRPRPHGSPRP is -0.0241.
RRIRQRPPRLPRPRPRPVKNPRP: the “shrunken log2 fold change” value was 0.142.
The figure for RRIRMRPPRLPRPRPRPSANPRP is 2.44; for RRIRMRPPRLPRPRPRPEGKPRP it is 3.36.
As to RRIRIRPPRLPRPRPRPCNPPRP, the “shrunken log2 fold change” value is -0.123.
The result for RRIRGRPPRLPRPRPRPAYNPRP reads -0.34.
With RRIRHRPPRLPRPRPRPFVPPRP, the “shrunken log2 fold change” value was -0.455.
The figure for RRIRYRPPRLPRPRPRPCGFPRP is -0.241.
Regarding RRIRVRPPRLPRPRPRPEIAPRP, the “shrunken log2 fold change” value is -0.0307.
The figure for RRIRHRPPRLPRPRPRPDHEPRP is -0.018; for RRIRQRPPRLPRPRPRPEFCPRP it is 0.0723; for RRIRVRPPRLPRPRPRPIVRPRP it is -0.0635.
RRIRDRPPRLPRPRPRPKRCPRP: the “shrunken log2 fold change” value amounted to 0.0311.
The figure for RRIRRRPPRLPRPRPRPHQRPRP is 0.14.
The figure for RRIRKRPPRLPRPRPRPFSCPRP is -0.122; for RRIRRRPPRLPRPRPRPMRYPRP it is 0.236; for RRIRRRPPRLPRPRPRPHQVPRP it is 0.1.
On to RRIRERPPRLPRPRPRPWPRPRP, for which the “shrunken log2 fold change” value is 0.223.
As to RRIRSRPPRLPRPRPRPVMMPRP, the “shrunken log2 fold change” value is -0.0812.
In the case of RRIRCRPPRLPRPRPRPARWPRP, the “shrunken log2 fold change” value amounted to 0.56.
With RRIRMRPPRLPRPRPRPCPEPRP, the “shrunken log2 fold change” value was 0.123.
The result for RRIRCRPPRLPRPRPRPHDCPRP reads -0.0825.
The result for RRIRWRPPRLPRPRPRPQWTPRP reads 0.787; that for RRIRMRPPRLPRPRPRPERLPRP, 0.442; that for RRIRIRPPRLPRPRPRPFYKPRP, -0.0824.
The figure for RRIRSRPPRLPRPRPRPRYQPRP is -0.145; for RRIRHRPPRLPRPRPRPHLLPRP it is -0.286.
As for RRIRRRPPRLPRPRPRPASSPRP, the “shrunken log2 fold change” value is -0.0219.
As to RRIRARPPRLPRPRPRPGLMPRP, the “shrunken log2 fold change” value was 0.524.
The result for RRIRVRPPRLPRPRPRPHSCPRP reads -0.0621; that for RRIRWRPPRLPRPRPRPSQEPRP, 0.0253.
As to RRIRARPPRLPRPRPRPFWAPRP, the “shrunken log2 fold change” value was 0.218.
RRIRQRPPRLPRPRPRPYHHPRP: the “shrunken log2 fold change” value is -0.186.
Take RRIRNRPPRLPRPRPRPQMSPRP: the “shrunken log2 fold change” value is -0.0396.
The result for RRIRARPPRLPRPRPRPCMPPRP reads -0.0783.
For the sequence RRIRARPPRLPRPRPRPQNTPRP, the “shrunken log2 fold change” value is -0.286.
Turning to RRIRKRPPRLPRPRPRPRWAPRP, the “shrunken log2 fold change” value came to 0.469.
The result for RRIRNRPPRLPRPRPRPDINPRP reads -0.482.
The result for RRIRGRPPRLPRPRPRPWFGPRP reads -0.05; that for RRIRGRPPRLPRPRPRPPFMPRP, 0.557; that for RRIRRRPPRLPRPRPRPYARPRP, 0.0203.
For RRIRVRPPRLPRPRPRPEVPPRP, the “shrunken log2 fold change” value stood at 0.326.
Take RRIRTRPPRLPRPRPRPLWCPRP: the “shrunken log2 fold change” value was -0.0967.
The figure for RRIRYRPPRLPRPRPRPYEQPRP is -0.0134.
